{
  "source": "the nanobody polyreactivity screen of Harvey et al. (2022)",
  "data": [
    {"experiment": "yeast display, Sf9 membrane polyspecificity reagent, FACS + sequencing; frameworks hold sequencing errors", "outline": "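Genes from sorted yeast were amplified by colony PCR, read by MiSeq 2 × 250 sequencing and filtered on CDR length. These cells carried a synthetic nanobody library in Saccharomyces cerevisiae BJ5465 and were sorted by FACS into low and high (top ~1%) gates on anti-HA and streptavidin fluorescence. Polyreactivity is labelled according to the gate of origin.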", "values": [
      {"sequence": "QVQLVESGGGLVQAGGSLRLSCTASGSIFVTNAMGWYRQAPGKERELVAAITWGGGNTTYADSVKGRFTISRDNAKNTVDLQMNSLKPEDTAVYYCAKDPYVNRDYWGQGTQVTVSS", "polyreactivity (PSR sort gate)": "low polyreactivity"},
      {"sequence": "QVQLVESGGGLVQAGGSLRLSCAASGGIVGYYAMGWYRQAPGKERELVAAISWSGGSTYYADSVKGRFTISRDNAKNTVYLQMNSLKPEDTAVYYCAASDSYGYDYWGQGTQVTVSS", "polyreactivity (PSR sort gate)": "high polyreactivity"},
      {"sequence": "QVQLVESGGGLVQAGGSLRLICAASGSIFVNNGMGWYRQAPGKERELVAAIRLSTGSTYYADSVKGRFPISRDNAKNTVYLQMNSLKPEDTAVYYCATRYYIWGNWGQGTQVTVSS", "polyreactivity (PSR sort gate)": "high polyreactivity"},
      {"sequence": "QVQLVDSGGGLVQAGGSLRLSCAASGSIFAYYTIGWYRQAPRKERELVAAITSGGSTNYADSVKGRFTISRDNAKNTVYLQMNSLKPEDTAVYYCAVQGSRYSYRYGYRFRTMDYWGQGTQVTVSS", "polyreactivity (PSR sort gate)": "high polyreactivity"},
      {"sequence": "QVHLVESGGGLVQAGGSLRLSCAASGITFKWNDMGWYRQAPGKEREFVAAITGSTGSTFYADSVKGRFTISRDNAKNTVYLQMNSLKPEDTAVYFCAAGPWFYYWRQGTQVTVSS", "polyreactivity (PSR sort gate)": "low polyreactivity"},
      {"sequence": "QVQLVESGGGLVQAGGSLRLSCAASGSIFRSSDMGWYRQAPGKERELVAAISDSTGTTYYADSVKGRFTISRDNAKNTVYLQMNSLKPEDTAVYYCAADYFWYRSGRYHYWGQGTQVTVSS", "polyreactivity (PSR sort gate)": "high polyreactivity"},
      {"sequence": "QVQLVESGGGLVQAGRSLRLSCAASGYTFYFYAKGWSRQAPGKDRELVASMTWRGGSPYYADSVKGRFTISRDNAKNTVYLQMNSLKPEETADYYCAKHVYYIYDYWGQGTQVTVSS", "polyreactivity (PSR sort gate)": "low polyreactivity"},
      {"sequence": "QVHLVESGGGLVQAGGSLRLSCAASGFTFYAMGWYRQAPGKERELVAAIDQGGDRTYYADSVKGRFTISRDNAKNTVYFQMNSLKPEDTAVYYCAARYRRTWRLIYWGQGTQVTVSS", "polyreactivity (PSR sort gate)": "high polyreactivity"},
      {"sequence": "QVQLVESGGGILQAGGSLRLSCAASGSTFSGYAMGWYRQATGKERELVAAISSSGGSTYYADSVKGRFTISRDNAKNTVYLKMNSQKPEDTAVYYCAKRRYGKHYTGLTSYYYWGHGTQVTVSS", "polyreactivity (PSR sort gate)": "high polyreactivity"},
      {"sequence": "QVQLVESGGGLVQAGGSLRLSCAASGRIYDVYAMGWYRQAPRKERELVATITGSGGGTYYADSVKGRFTISRDNAKNTVYLQMNSLKPEDTAVYYCAADYYPTYAYYVSNVGYDYWGQGTQVNVSS", "polyreactivity (PSR sort gate)": "low polyreactivity"},
      {"sequence": "QVQLHESGGGMVQAGGSLRLSCAASGTISYAGPMGWYRQAPGKEREFVAGIGVGSNTNYADSVKGRYTIIRDNAKNTVYLKMNSLKPEDTAVYYCGVGVYAQLGRPYWGQGTQVTVSS", "polyreactivity (PSR sort gate)": "low polyreactivity"},
      {"sequence": "QVQLVESGGGLVQSGGSLRLSCAASGSIFWYNARGWYRQAPGKERELVAAINGGGRTYYADSVKGPFTISRDNAKNTVYLQMNSLKPEDTAVYYCAVDPISQGHMDYGGQGTQVTVSS", "polyreactivity (PSR sort gate)": "low polyreactivity"},
      {"sequence": "QVQLVESGGGLVQAGASLRLSCAASGLIFIHYAMGWYRQAPGKERELVATISRSGVRTYYADSVKGRFTISRDNAKNTVYLQMNSLKPEDTAVYYCAADYTTNFWGYRYNYWGQGTQVTVSS", "polyreactivity (PSR sort gate)": "low polyreactivity"},
      {"sequence": "QVNLVESGGGLVQAGGSLRLSCAASGSIFVGYAMRWYRQAPGKERELVAAISSNSASTYYADSVKGRFTISRDNAKNTLYLQMNSLKPEDTEVYYCATAYRSYWLNDYWGQGTQVTVSS", "polyreactivity (PSR sort gate)": "low polyreactivity"},
      {"sequence": "QVQLVESGGGLVQAGGSLRLSCAASGRIFRYYAMGWYRQPPGKERELVAAISSSGGRTYYADSVKGRFTISRDNAKNTVYLQMNSLKPEDTAVYYCAADAPNFGLYRDKDYDYWGQGTQVTVSS", "polyreactivity (PSR sort gate)": "high polyreactivity"},
      {"sequence": "QVQLVESGGGCSGGRSLRLSCAASGLIFVDNAMGWYRQAPGKERELVAAITWSTGSTYYADSVKGRFTISRDNAKNTVYLQMNSLKPEDTAVYYCNKRYKYRYYYWGQGTQVTVSS", "polyreactivity (PSR sort gate)": "low polyreactivity"},
      {"sequence": "QVQLVESGGGLVQAGGSLRLSCAASGSIFLSYAMGSYREAPGKERELVATITAGGGSTNYADSVKGRFTISRDNAKNTVYLQMNSLKPEDTAVYYCAAKRLSWHGYGYWGQGTQVTVSS", "polyreactivity (PSR sort gate)": "low polyreactivity"},
      {"sequence": "QVQLVESGGGLVQAGGSLRLSCAASGGLFTLNAMGWYRQAPGKEREMVAGISWSGDRTYYADSVKGRFTISRDNAKNTVYLQMNSLKPEDTAVYYCAAYDYWGQGTQVTVSS", "polyreactivity (PSR sort gate)": "low polyreactivity"},
      {"sequence": "QVQLVESGGGLVQAGGSLRLSCAASGSIFRRNTMGWYRQAPGKERELVAAISTRGGSTYYADSVKGRFTISRDNAKNTVYLQMNSLKPEDTAVYYCNTRGYYIVHRGYDYWGQGTQVTVSS", "polyreactivity (PSR sort gate)": "high polyreactivity"},
      {"sequence": "QVQLVESGGGLVQAGGSLRLSCAASGRIFIAYAMGWYRQAPGKERELVAAITDDGGTNYADSVKGRFTISRDNAKNTVYLQMNSLKPEDTAVYYCAATYLIGYYYVWEYDYWGQGTQVTVSS", "polyreactivity (PSR sort gate)": "low polyreactivity"},
      {"sequence": "QVQLVESGGGLVQAGGSLRLSCAASGITFDDYVMGWYRQAPGKERELVAAITRSGGRTYYADSVKGRFTISRDNAKNTVYLQMNSLKPEDTAVYYCAARHRDNRFDYWGQGTQVTVSS", "polyreactivity (PSR sort gate)": "high polyreactivity"},
      {"sequence": "QVQHVESGGCLVQARGSLRLSCASSGRTFDIYARGWYRHPPGKESELVAVISASGGSTYYADSVKGRFTISRDNAKNTVYLQMNSLKPEDTAVYYCAARYWFRFQYDYWGQGTQVTVSS", "polyreactivity (PSR sort gate)": "high polyreactivity"},
      {"sequence": "QVQLVESGGGLVQAGGSLRLSCAASGSTFRWYAMGWYRQAPGKERELVAAIRYTGGSTYYADSVKGRFTISRDNAKNTVYLQMNSLKPEDTAVYYCNARTFRRYVSYSRTYVGYDYWGQGTQVTVSS", "polyreactivity (PSR sort gate)": "high polyreactivity"},
      {"sequence": "QVQLVESGGGLVQAGGSLRLSCAASGNIFSYYAMGWYRQAPGKETELVAAIRSSGVGTRYADSVKGRFTISRDNAKNTVYVQMNSLKPEDTAVYYCAATGYTGYSRYYYWGQGTQVTVSS", "polyreactivity (PSR sort gate)": "high polyreactivity"},
      {"sequence": "QVQLVESGGGLVQAGGSLRLSCAASGFIFGYYAMGWYRQAPGKERELVAGISWGGARTYYADSVKGRFTISRDNAKNTVYLQMNSLKPEDTAVYYCAATHYGHSISYWFDYWGQGTQVTVSS", "polyreactivity (PSR sort gate)": "high polyreactivity"},
      {"sequence": "QVQLVESGGGLVQAGGSLRLSSAASGFIFPAYAMGWYRQAPGKDRELVAAISKSGGRTYYADSVKGRFTISRDNAKNTVYLQMNSLKPEDTAVYYCNKYRYPREQYTWKYAWGYDYWGQGTQVTVSS", "polyreactivity (PSR sort gate)": "high polyreactivity"},
      {"sequence": "QVQLVESGGGLVQAGGSLRLSCAASGSTFTKNAMGWYRQAPGKERELVVVINRSGTSTYYADSVKGRFTISRDNAKNTVYLQMNSLKPEDTAVYYCATKYARTAGGGYYWGQGTQVTVSS", "polyreactivity (PSR sort gate)": "high polyreactivity"},
      {"sequence": "QVQLVESGGGLVQAGGSLRLSCAASGFTLGHYAMGWYRQAPGKERELVAVITSGSSTNYADSVKGRFTISRDNAKNTVYLQMNSLKPDDTAVYYCAAEDPYFKWLYYYWGQGTQVTVSS", "polyreactivity (PSR sort gate)": "low polyreactivity"},
      {"sequence": "QVQLVESGGCLVQAGGSLRLSCAPSGSIFKVYAKGWYRQAPGKVRELVAAITNGGSTYADSVKGRFTMSRDNAKYTVYLQMNSLKPEDTAVYYCDSDYRGHSGSWYDYWGQGTQVTVSS", "polyreactivity (PSR sort gate)": "low polyreactivity"},
      {"sequence": "QVQLVESGGGLVQAGGSLRLSCAASGIILAFNAMGWYRQAPGKEREFVASISQGGSSTYYADSVKGRFTISRDNAKNTVYLQMNSLKREDTAVYYCAARSSRVRSPYQRYYYWGQGTQVTVSS", "polyreactivity (PSR sort gate)": "high polyreactivity"},
      {"sequence": "QDQLVESGGGLVQAGVSLRLSCPASGYNFDYYVMGWYRQAPGKERELVAAISSSGGSTYYADSVKGRFTISRDNAKNTVYLQMNSLKPEDTAVYYCATKPYPYYLYYYWGQGTQVTVSS", "polyreactivity (PSR sort gate)": "high polyreactivity"},
      {"sequence": "QVQLVESAGALVQAGGSLRLSCAASGPTFSHNAMGWDRQAPGKERELVASIRSGGLTDYADSVKGRFTISRDNAKNTVYLQMTSLKPEDSAVFYCIAEGVWWSTRYDSWGQGTQVTVSS", "polyreactivity (PSR sort gate)": "low polyreactivity"},
      {"sequence": "QVQLVESGGGLVQAGGSLRLSCAASGRTFESYAMGWYRPAPGKERELVAAITWSGGDTYYADSVKGRFTISRDNAKNTVYLQMNSLKPEDTAVYYCAKEQGLYSVSPYDYWGQGTQVTVSS", "polyreactivity (PSR sort gate)": "low polyreactivity"},
      {"sequence": "QVQLVESGGGLVQAGGSLRLSCAASGRIFPGYAMGWYRQAPGKERELVAGISNDASTNYADSVKGRFTISRDNAKNTVYLQMNSLKPEDTAVFYCAAEISYLSVPRYDYWGQGTQVTVSS", "polyreactivity (PSR sort gate)": "low polyreactivity"},
      {"sequence": "QVQLVESGGGLVQAGGSLRLSCAASGFTFGRNAMGWYRQAPAKERELVAAISYDGTRTYYADSVKGRFTISRDKAKNTVYLQMNSLKPEDTAVYYGNAVWVRGFYRVYDYWGQGTQVTVSS", "polyreactivity (PSR sort gate)": "high polyreactivity"},
      {"sequence": "QVQLVESGGGLVQAGGSLRLSCAASGRIFYINAMGWYRQAPGKERELVAAISWSGSSTYYADSVKGRFTISRDNAKNTVYLQMNSLKPEDTAVYYCAAVSYKRVDYWGQGTQVTVSS", "polyreactivity (PSR sort gate)": "high polyreactivity"},
      {"sequence": "QVQIVESGGGLVQAGGSLRLSCAASGFTFYGYAMGLYRQAPGKERELVATISGRGGRTYYADSVKGLFTISRDNAKNTVYLQMNSLKPVDTAVYFCAAVSSYRYYGDYYWGQGTQVTVSS", "polyreactivity (PSR sort gate)": "high polyreactivity"},
      {"sequence": "QVQLVESGGGLVQAGGSLRLSCAASGFTFTRYAMGWYRQAPGKERELVATITKRGGSTYYADSVKGRFTISRDNAKNTVYLQMNSLKPEDTAVYYCAADGASRALYDFWGQGTQVTVSS", "polyreactivity (PSR sort gate)": "high polyreactivity"},
      {"sequence": "QVQLVESGGGLVQAGGSLRLSCAASGITFYGYAMGWYRQAPGKEREFVAAISASGGSTYYADSVKGRFTISRDNAKNTVYLQMNSLKPEDTAVYYCAALVRGAYGYGYWGQGTQVTVSS", "polyreactivity (PSR sort gate)": "high polyreactivity"},
      {"sequence": "QVQLVESGGGLVQAGGSLRLSCAASGSIFAGYAMGWYRQAPGKERELVAAISSSGSRTYYADSVKGRFTISRDNAKNTVYLHMNSLKPEDTAVYYCATQSWVRYGQPEFDYWGQGTQVTVSS", "polyreactivity (PSR sort gate)": "high polyreactivity"},
      {"sequence": "QVQLEESGGGLVQAGGSLRLSCAASGFTFVDYLMGWYRQAPGKERELVAAITRSGGSTYYADSVKGRFTISRDQAKNTVYLEMNSLKPEDTAVYYCAAEIRDYAKSYSFYWGQGTQVTVSS", "polyreactivity (PSR sort gate)": "high polyreactivity"},
      {"sequence": "QVQLVESGGGLVQAGGSLRLSCAASGSTFVDNAMGWYRQAPGKERELVAAISTRGGTTYYADSVKGRFTISRDNAKNTVYLQMNSLKPEDTAVYYCAADYYDSGWYGYWGQGTQVTVSS", "polyreactivity (PSR sort gate)": "high polyreactivity"},
      {"sequence": "QVQLVDSGGCLVQAGGSLRLSCAASGRTDGINAMGWYRQAPGKERELVAAIDSIDGTTYYADSVKGRFTISRDNAKNTVYLQMNSLKQEDTAVYYCAAEFISSYDYWGQGTQVTVSS", "polyreactivity (PSR sort gate)": "high polyreactivity"}
    ]}
  ]
}
